Data on 2 molecules can be found in US20260217852A1 (ZONHON BIOPHARMA INSTITUTE, published 2026).

The target in one assay is CD3 protein. As to the kind of experiment: BLI (ForteBio), biotinylated CD3 protein on SA biosensors, antibody at 500 nM. The method, then:
CD3 protein was first biotinylated using EZ-Link NHS-PEG12-Biotin, and the biotinylated protein was immobilized on SA biosensors. The biosensors were then equilibrated in 1× Kinetics Buffer, followed by incubation with the humanized bispecific antibody solution to allow binding. The concentration of the humanized bispecific antibody solution was 500 nM. Afterward, the biosensors were placed in 1× Kinetics Buffer for dissociation. Data were analyzed using Fortebio Data Analysis 8.0 software to calculate the affinity constant values.
(BLI is a label-free optical method that tracks binding on a fibre tip over time.)

The target in assay [1] is T1, CD26 on cells (786-0, OS-RC-2, UT16, NCI-H226 tumor cells; PBMCs) (human, UniProt P27487 1-766).
T1 construct: whole, on cells; The background says that CD26 commonly exists as a homodimer; also called CD26 target on tumor cells; CD26 on PBMCs
As to the kind of experiment: flow cytometry, PBMCs in a mixed system with 786-0 cells, antibody at 0.3 ug/mL. A general note: In flow cytometry, cells or beads pass a laser one at a time.

T1 sequence (P27487 whole entry): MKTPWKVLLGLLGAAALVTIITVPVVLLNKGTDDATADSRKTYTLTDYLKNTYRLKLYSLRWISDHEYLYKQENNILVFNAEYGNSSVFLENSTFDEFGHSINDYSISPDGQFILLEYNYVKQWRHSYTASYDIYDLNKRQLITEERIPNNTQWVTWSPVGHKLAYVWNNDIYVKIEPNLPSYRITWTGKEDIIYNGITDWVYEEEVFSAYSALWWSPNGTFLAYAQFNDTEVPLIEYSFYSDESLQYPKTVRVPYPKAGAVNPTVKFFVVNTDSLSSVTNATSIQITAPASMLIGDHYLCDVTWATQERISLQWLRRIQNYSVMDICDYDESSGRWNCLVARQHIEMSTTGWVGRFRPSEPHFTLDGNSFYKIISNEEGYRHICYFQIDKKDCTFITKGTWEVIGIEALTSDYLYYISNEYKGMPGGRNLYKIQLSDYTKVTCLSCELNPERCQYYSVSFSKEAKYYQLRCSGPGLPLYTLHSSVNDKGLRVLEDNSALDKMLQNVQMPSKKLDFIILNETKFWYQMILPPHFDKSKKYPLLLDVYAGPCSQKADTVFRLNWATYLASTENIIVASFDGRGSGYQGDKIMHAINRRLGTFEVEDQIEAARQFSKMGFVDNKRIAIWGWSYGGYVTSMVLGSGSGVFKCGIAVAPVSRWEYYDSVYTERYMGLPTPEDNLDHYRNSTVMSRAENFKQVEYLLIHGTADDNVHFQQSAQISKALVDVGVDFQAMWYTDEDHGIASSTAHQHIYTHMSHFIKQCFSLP

B1: humanized CD26-CD3 BiTE bispecific antibody 19G300 (bispecific antibody)
scFv: DIQMTQSPSSLSASPGDRVTISCRASQDIGNFLTWYQQKPGQAPKLLIYYRSRLHSGVPSRFSGSGSGTDYTLTISSLEPEDFATYYCQQDNTLPWTFGQGTKVEIKGGGGSGGGGSGGGGSEVQLVESGGGLVQPGGSLRLSCAASGFTFTNYYMSWVRQAPGKGLEWVAFIRDKANGYTTEYSASVKGRFTISRDNSKNTLYLQMNSLRAEDTAVYYCARVLRYLGYNFDYWGQGTLVTVSSGGGGSDVQLVQSGAEVKKPGASVKVSCKASGYTFTRYTMHWVRQAPGQGLEWIGYINPSRGYTNYADSVKGRFTITTDKSTSTAYMELSSLRSEDTATYYCARYYDDHYCLDYWGQGTTVTVSSGGGGSGGGGSGGGGSDIVLTQSPATLSLSPGERATLSCRASQSVSYMNWYQQKPGKAPKRWIYDTSKVASGVPARFSGSGSGTDYSLTINSLEAEDAATYYCQQWSSNPLTFGGGTKVEIK
notes: Single chain of about 55 kDa; also called humanized bispecific antibody 19G300
As for B1, in the assay with CD3 protein, the equilibrium dissociation constant (Kd) (as a rule, the free concentration of one partner at which half of the binding sites on the other are occupied at equilibrium, for simple one-to-one binding) is 1.61 nM; the off-rate (koff) (usually the rate constant with which the complex falls apart) was 0.000137 s⁻¹; the kon (commonly the rate constant with which the complex forms) turned out to be 84800 M⁻¹ s⁻¹.

B2: full-length humanized anti-CD26 antibody 21G428-429 (antibody, human IgG1, kappa, V domains shown)
VH: EVQLVQSGAELVKPGASVKLSCAASGFNIKDTYIYWVRQAPGQGLEWVGRIEPMNGNTKYDPKFQGRFTMTANTSKNTAYLQLSSLRSEDTAVYYCSRGGWLLLYVMDYWGQGTLVTVSS
VL: DIVMTQSPSSLSVTPGERVSISCRSDKSLLHSNGNTYLYWFLQKPGQSPQVLIYRMSNLASGVPDRFSGSGSGTDFTLTISRVEAEDVGVYYCFQQLEYPYTFGQGTKLEIKR
notes: Derived from mouse antibody No. 62; About 150 kDa
In the case of B2, the binding result in assay [1] is on record as “binds”.
